From the Immune Epitope Database (IEDB) come the findings set out here.

What is called IC50 is the concentration that gives 50% inhibition.

Where only a bound is given, the exact number is not on record here.

One assay concerns the target HLA-B*35:01. In words: IEDB peptide-MHC binding, purified MHC/competitive/radioactivity; ≥ and ≤ were set here for values at or beyond the usual limits of such assays. The following applies: source organism: Bordetella pertussis.
On to FAILSSTTE, for which the 50% inhibitory concentration (IC50) amounted to 69.9 µM.
In the case of KPAPTAPPM, the IC50 worked out at 0.019 µM.
The same measure, in the same setting: to LPVRGVALV belongs 69.9 µM.

For the next assay, the target named is HLA-A*02:01. The description is as above. The following applies: source organism: Bordetella pertussis.
With GKLPKPVTV, the IC50 worked out at 69.4 µM.

A further assay addresses HLA-B*57:01. The assay is described as above. To be noted: source organism: Bordetella pertussis.
Regarding VALASQARW, the IC50 amounted to 0.188 µM.
On to YLRQITPGW, for which the concentration for half-maximal inhibition (IC50) was found to be 1.54 µM.

The next assay deals with HLA-B*07:02. The assay is described as above. The following applies: source organism: Bordetella pertussis.
FVRDGQSVI: the IC50 amounted to 5.56 µM.
Still for that read-out and setting: to KDYRDKDGG belongs 69.6 µM; to KPAPQPGPQ, 31.7 µM; to PPRPVAAQV, 17.8 µM.

The target in a further assay is HLA-B*53:01. The description is as above. To be noted: source organism: Bordetella pertussis.
With DATFETYAL, the IC50 was 4.9 µM.
Consider EPQAELAVF, for which the IC50 was 4.52 µM.
The same measure, in the same setting: the result for ESYSESHNF reads 6.27 µM.
Consider FAILSSTTE, for which the IC50 was 47.1 µM.
On the same count and under the same terms, to GAVPGGAVP belongs 69.9 µM; to GGVPGGAVP, 26.7 µM; to LPVRGVALV, at least 78.2 µM.

The next assay addresses HLA-B*44:03. The assay is described as above. To be noted: source organism: Bordetella pertussis.
As for AEHGEVSIQ, the IC50 is 2.88 µM.
Same read-out and setting: the result for AEVKVGYRA reads 2.36 µM.
Take KEAATIVAA: the IC50 amounted to 15 µM.
The same measure, in the same setting: to SESHNFHAS belongs 32.7 µM.
